Here are results for five molecules from patent US11091546B2, “Optimized PNE-based chimeric receptor T cell switches and uses thereof” (The Scripps Research Institute, priority 2015, dated 2021).

Data set [1] has as its system Nalm-6^Luc/GFP cells. In words: Nalm-6 Luc/GFP leukemia xenograft. It counts as in vivo. As to conditions: IgG format. The procedure: NSG mice were inoculated with CD19^+ Nalm-6^GFP/Luc cells. Six days later, 40×10^6 sCAR-T cells were delivered IV and switch dosing commenced every other day at 0.5 mg/kg for 10 days. Tumor burden was followed by luminescence after injection of luciferin and imaged on an in vivo imaging system (IVIS; PerkinElmer, Waltham, Mass., USA).
Asterisks indicate significance from LCNT Fab group. Data are represented as means±SEM, and statistical significance was calculated using the 2-way ANOVA with Bonferroni's post-test (B & E; shown for final time-point only) or by one-tailed student's t-test (C & F) where *=p<0.05, **=p<0.01 and ***=p<0.001.
NSG mice were inoculated with Nalm-6^GFP/Luc as described in FIG. 28. […] A fourth group consisted of two cohorts (n=3) of mice injected I.V. with sCAR-T cells without (−) LCNT Fab switch. LCNT Fab dosing in the indicated group was carried out daily at 0.5 mg/kg after the initial T cell infusion. Luminescence was measured at 6 h and subsequently every 24 h as indicated. Cohorts were sacrificed for analysis immediately following IVIS imaging. […] Gray lines indicate tumor burden in PBS and sCAR-T cell—LCNT Fab controls. […] Data are represented as means±SEM, and statistical significance was calculated using the one-tailed student's t-test (C & D) where *=p<0.05, **=p<0.01 and ***=p<0.001.
NSG mice were inoculated with Nalm6^GFP/Luc and six days later engrafted with short-dimeric sCAR-T cells as described in FIG. 29. […] Dosing was carried out for 15 d starting at day 6 (corresponding with sCAR-T cell infusion) as indicated by gray shading. Control groups CART-19 and PBS received no switch. The NS group received sCAR-T cells but no switch. Open circles denote the death of individual mice without evidence of tumor burden and may reflect GVHD. Triangles in PBS, NS and q.a.d. group indicate death due to increasing tumor burden. […] (19) indicates CART-19. […] (19) indicates CART-19. […] Triangles indicate the death of individual mice with significant tumor burden. The single mouse death in the 0.05 mg/kg group occurred while tumor burden was decreasing. […] Statistical significance was calculated using the one-tailed student's t-test (B, C & E) where *=p<0.05, **=p<0.01 and ***=p<0.001.
The different sCAR designs were tested in a xenograft model harboring luciferized NALM-6 (CD19+, CD80−, CD86−) cells. 1 mg/kg monovalent switch “A” was administered along with sCAR cells. […] Optimized hinge improved response. Short hinge CARs have faster clearance. Short, dimeric hinge CARs have improved persistence. Tumor burden was visualized with IVIS imaging. Experiments are repeated with a humanized scFv and bivalent switches.
Activity of the switchable CAR-T cell platform in vivo was evaluated via tumor regression in a Nalm-6^Luc/GFP leukemia xenograft model in immunodeficient NOD scid gamma (NSG) mice. These mice without treatment succumb to disease within 21 days. The impact of CAR hinge design on in vivo efficacy was determined using mice inoculated with Nalm-6^Luc/GFP, followed by I.V. injection of long, short, or short-dimeric sCAR-T cells 6 days later. The LCNT Fab was dosed I.V. (0.5 mg/kg) every other day for 10 days and tumor regression was followed by in vivo imaging (IVIS) of the luciferase signal from Nalm-6^Luc/GFP cells (FIG. 29A).
The effect of switch grafting position on the control of tumor burden was determined. As with the previous model, short-dimeric CAR-T cells were injected 6 days after tumor inoculation and mice were treated every other day (starting at day 6) with 0.5 mg/kg LCNT, HCNT, NTBV, LCC1, or HCCT Fab switches (FIG. 29D).
To determine the proliferation and localization of sCAR-T cell cytotoxicity during this time interval, mice were sorted into 5 cohorts per treatment regimen and analyzed at 8, 24, 48, 72, and 96 h after treatment with short-dimeric sCAR-T cells+LCNT Fab switch or with conventional CART-19 and no switch. […]

Data set [2] has as its system MOLM14 cell line. In words: Cytokines in cytotoxicity assay supernatant (CBA Human Th1/Th2 II Kit). It counts as cell-based. More on the design: unit not given here. As to conditions: duplicates. An excerpt:
(§1) FIG. 38A illustrates multiple fusion/grafting locations: A=LCNT1 (light chain N terminus version 1), B=HCNT3 (heavy chain N terminus version 3), C=heavy chain C terminus, and D=light chain C terminus). […] Data shown are an average of duplicate samples, and error bars represent SD. Only the NT switches plus the BvCT and By CH1CL1 as references are depicted.
(§2) Monovalent and bivalent combinations of these switches were expressed and tested in cytotoxicity assays at a dose titration within the range of 0.4 nM to 0.0001 nM. […] Data shown are an average of duplicate samples, and error bars represent SD. Only the NT switches plus the BvCT and By CH1CL1 as references are depicted. cytokine secretion was measured.

The subject of data set [3] is CD33+ MOLM14 cells. Nature of the data set: Cytotoxicity assay, sCAR-T cells + anti-CD33 (hP67.6) switches. In kind it is cell-based. More on the design: unit not given here. The conditions noted are these: duplicates.
Description: as §1, §2

For data set [4], the system named is CD123+ MOLM14 cells. Nature of the data set: Flow cytometry based cytotoxicity assay, sCAR-T cells + anti-CD123 Fab switches. It counts as cell-based. As to conditions: duplicates. The procedure:
as §1
The flow cytometry based cytotoxicity assay were performed in RPMI-1640 media supplemented with 5% heat inactivated FBS, 1% Pen/Strep, 1% glutamine, and 1% Sodium pyruvate. Target cells (2×10^4 cells) were pre-labeled with CellVue Claret Far Red Fluorescent Cell linker (Sigma-Aldrich) and co-cultured with 1×10^5 sCAR-T cells. Variable concentration of switch was added to assess in vitro activity. This assay was conducted in a volume of 100 ul in 96-well U bottom plate for 24 hours, after which the cells were stained with 7-AAD viability dye (1:100; BD Biosciences) in FACs staining buffer (PBS with 2 mM EDTA and 1% FCS) and acquired on BD Accuri C6 flow cytometer. The viability was calculated as following formula: […]=[(no switch viable target cells-experimental viable target cells)/no switch viable target cells]*100
Activity was confirmed by flow cytometry based cytotoxicity assay (FIG. 38J & FIG. 38K). FIG. 38J and Table 31. […] FIG. 38K and Table 32.
In general terms: Flow cytometry measures light scatter and fluorescence of single cells or particles in a stream.

Several values for one entry are separate records, joined by “and”; a condition that tells them apart may be missing. Equal values may be shown once.

On to “anti-CD19 IgG LCNT: FMC63 anti-CD19 IgG, peptide on N-terminus of light chain (SEQ ID 36 & 28)”, for which the “tumor burden (IVIS)” value in data set [1] (0.5 mg/kg every 5 days for 15 days (3 doses)) is given as “unable to significantly control tumor burden”. The tumor growth entry in data set [1] (1 mg/kg every day for 10 d) is reported as “unable to control tumor growth”.

“hP67.6 LCNT: anti-CD33 hP67.6 Fab, GCN4 on light chain N-terminus, GGGGS linker (SEQ ID 217 & 232)”: the “IFNg in supernatant (FIG. 38H)” value in data set [2] was 448.47 and 374.76. Further, the “Il-2 in supernatant (FIG. 38H)” value in data set [2] was 328.62 and 234. Besides, the “TNFa in supernatant (FIG. 38H)” value in data set [2] was 53.4 and 44.84. Moreover, the “cytotoxicity (FIG. 38G)” value in data set [3] (switch 0.1 pM) was 0; in data set [3] (switch 0.64 pM) it was 5.9 and 4.6; in data set [3] (switch 3.2 pM), 36.9 and 35.9; in data set [3] (switch 16 pM), 58.7 and 59.2; in data set [3] (switch 80 pM) it was 66 and 66.5; in data set [3] (switch 400 pM) it was 59.5 and 60.9.

Take “hP67.6 NTBV: anti-CD33 hP67.6 Fab, N-terminal bivalent (SEQ ID 217 & 220)”: the “IFNg in supernatant (FIG. 38H)” value in data set [2] was 957.81 and 958.26. For the same molecule, in data set [2], the “Il-2 in supernatant (FIG. 38H)” value was 936.57 and 898.28. The “TNFa in supernatant (FIG. 38H)” value in data set [2] was 98.48 and 97.95. Moreover, the “cytotoxicity (FIG. 38G)” value in data set [3] (switch 0.1 pM) was 0; in data set [3] (switch 0.64 pM), 0.9 and 0.8; in data set [3] (switch 3.2 pM), 23.6 and 28.4; in data set [3] (switch 16 pM) it was 55.4 and 57.1; in data set [3] (switch 80 pM) it was 69.7 and 69.2; in data set [3] (switch 400 pM) it was 69.3 and 69.5.

B1: 32716 NTBv: anti-CD123 clone 32716 Fab, N-terminal bivalent (protein)
light: NYHLENEVARLKKLGGGGSDIVLTQSPASLAVSLGQRATISCRASESVDNYGNTFMHWYQQKPGQPPKLLIYRASNLESGIPARFSGSGSRTDFTLTINPVEADDVATYYCQQSNEDPPTFGAGTKLELRTVAAPSVFIFPPSDEQLKSGTASVVCLLNNFYPREAKVQWKVDNALQSGNSQESVTEQDSKDSTYSLSSTLTLSKADYEKHKVYACEVTHQGLSSPVTKSFNRGEC
heavy: NYHLENEVARLKKLLVGEAAAKEAAAKAQIQLVQSGPELKKPGETVKISCKASGYIFTNYGMNWVKQAPGKSFKWMGWINTYTGESTYSADFKGRFAFSLETSASTAYLHINDLKNEDTATYFCARSGGYDPMDYWGQGTSVTVSSARTKGPSVFPLAPSSKSTSGGTAALGCLVKDYFPEPVTVSWNSGALTSGVHTFPAVLQSSGLYSLSSVVTVPSSSLGTQTYICNVNHKPSNTKVDKKVEPKSC
For the molecule B1, the “Percent of cytotoxicity in target cells” value in data set [4] (FIG. 38K, clone 32716, switch 0.01 pM) is 0%; in data set [4] (FIG. 38K, clone 32716, switch 0.128 pM), 2.2% and 3.1%; in data set [4] (FIG. 38K, clone 32716, switch 0.64 pM), 1.6% and −6.4%; in data set [4] (FIG. 38K, clone 32716, switch 3.2 pM), 6.4% and 0.2%; in data set [4] (FIG. 38K, clone 32716, switch 16 pM), 13.7% and 12.6%; in data set [4] (FIG. 38K, clone 32716, switch 80 pM) it was 27% and 28.5%. In addition, the “Percent of cytotoxicity in target cells” value in data set [4] (FIG. 38K, clone 32716, switch 400 pM) is 50.9% and 44.5%; in data set [4] (FIG. 38K, clone 32716, switch 2000 pM) it was 60.9% and 55.7%; in data set [4] (FIG. 38K, clone 32716, switch 10000 pM), 58.3% and 51%.

B2: 26292 NTBv: anti-CD123 clone 26292 Fab, N-terminal bivalent (protein)
light: NYHLENEVARLKKLGGGGSDVQITQSPSYLAASPGETITINCRASKSISKDLAWYQEKPGKTNKLLIYSGSTLQSGIPSRFSGSGSGTDFTLTISSLEPEDFAMYYCQQHNKYPYTFGGGTKLEIRTVAAPSVFIFPPSDEQLKSGTASVVCLLNNFYPREAKVQWKVDNALQSGNSQESVTEQDSKDSTYSLSSTLTLSKADYEKHKVYACEVTHQGLSSPVTKSFNRGEC
heavy: NYHLENEVARLKKLLVGEAAAKEAAAKAQVQLQQPGAELVRPGASVKLSCKASGYTFTSYWMNWVKQRPDQGLEWIGRIDPYDSETHYNQKFKDKAILTVDKSSSTAYMQLSSLTSEDSAVYYCARGNWDDYWGQGTTLTVSSARTKGPSVFPLAPSSKSTSGGTAALGCLVKDYFPEPVTVSWNSGALTSGVHTFPAVLQSSGLYSLSSVVTVPSSSLGTQTYICNVNHKPSNTKVDKKVEPKSC
As to B2, the “Percent of cytotoxicity in target cells” value is 0% in data set [4] (FIG. 38J, clone 26292, switch 0.01 pM); 2% and 3.4% in data set [4] (FIG. 38J, clone 26292, switch 0.128 pM); 7.4% and 6.4% in data set [4] (FIG. 38J, clone 26292, switch 0.64 pM); 9.8% and 4.1% in data set [4] (FIG. 38J, clone 26292, switch 3.2 pM); 16.5% and 19.3% in data set [4] (FIG. 38J, clone 26292, switch 16 pM); 31.4% and 33.2% in data set [4] (FIG. 38J, clone 26292, switch 80 pM). The “Percent of cytotoxicity in target cells” value in data set [4] (FIG. 38J, clone 26292, switch 400 pM) was 57.5% and 55.5%; in data set [4] (FIG. 38J, clone 26292, switch 2000 pM) it was 64.2% and 62.1%; in data set [4] (FIG. 38J, clone 26292, switch 10000 pM) it was 55.3% and 57.4%.
